Laboratory results from the MegaScale stability set (Tsuboyama et al. 2023).

B1: HHH_rd1_0493 (parent)
chain: RDEDEKEKIKEALKRGNEDKAKEIAKRANVSPEEYERLRKEAE

Variants of: B1
Test: folding stability dG (cDNA display proteolysis); higher = more stable
Conditions: PBS, room temperature

Variant	folding stability dG [kcal/mol]
RDEDRKEKIKEALKRGNEDKAKEIAKRANVSPEEYERLRKEAE	2.1
RDEDSKEKIKEALKRGNEDKAKEIAKRANVSPEEYERLRKEAE	3.02
RDEDEKEKIKEALKRGNERKAKEIAKRANVSPEEYERLRKEAE	2.97
RDEDEKEKIKEALKRGNENKAKEIAKRANVSPEEYERLRKEAE	2.86
RDEDEKEKIKEALKRGLEDKAKEIAKRANVSPEEYERLRKEAE	3.13
RDEDEKEKIKEALKAGNEDKAKEIAKRANVSPEEYERLRKEAE	3.36
RDEDEKEKIKEALKCGNEDKAKEIAKRANVSPEEYERLRKEAE	2.31
RDEDEKEKIKEALKIGNEDKAKEIAKRANVSPEEYERLRKEAE	2.77
RDEDEKEKIKEALKRGNEDKAKEIAKRANMSPEEYERLRKEAE	2.89
RDEDEKEKIKEALKRGNEDKAKEIAKRANESPEEYERLRKEAE	0.435
RDEDEKEKIKEALKRGNEDKAKEYAKRANVSPEEYERLRKEAE	1.73
RDEDEKEKIKEALKRGNEDKAKEFAKRANVSPEEYERLRKEAE	1.48
RDEDEKEKIKEALKRGNEDKAKEIAKRANVSMEEYERLRKEAE	2.79
RDTDEKEKIKEALKRGNEDKAKEIAKRANVSPEEYERLRKEAE	2.94
RDKDEKEKIKEALKRGNEDKAKEIAKRANVSPEEYERLRKEAE	2.93
RDEDEKEKIKEALKRGNEDKQKEIAKRANVSPEEYERLRKEAE	0.364
RDEDEKEKIKEALKRGNEDKRKEIAKRANVSPEEYERLRKEAE	0.336
RDEDEKEKIKEALKRGNEDKSKEIAKRANVSPEEYERLRKEAE	1.11
RDEDEKEKIKEALKRGNEDKTKEIAKRANVSPEEYERLRKEAE	0.424
RDEDEKEKIKEALKRGNEDKVKEIAKRANVSPEEYERLRKEAE	0.589

Variant	folding stability dG [kcal/mol]
RDEDEKEKIKEALKRGNEDKHKEIAKRANVSPEEYERLRKEAE	0.313
RDEDEKEKIKEALKRGNEDKPKEIAKRANVSPEEYERLRKEAE	0.448
RDEDEKEKIKEALKRGNEDKAKEIAKFANVSPEEYERLRKEAE	2.01
RDEDEKEKIKEALKRGNEDKAKEIAKNANVSPEEYERLRKEAE	2.83
RDEDEKEKIKEALKRGNEDKAKEIAKYANVSPEEYERLRKEAE	2.21
RDEDEKEKIKEALKRGNEDKAKEIAKPANVSPEEYERLRKEAE	0.689
RDEDEKEKIKEALKRGNEDKAKEIAKIANVSPEEYERLRKEAE	2.65
RDEDEKEKIDEALKRGNEDKAKEIAKRANVSPEEYERLRKEAE	0.644
RDEDEKEKICEALKRGNEDKAKEIAKRANVSPEEYERLRKEAE	2.32
RDEDEKEKIKEALKRGNEDKAKEIAKRANVSPVEYERLRKEAE	2.22
RDEDEKEKIKEALKRGNEDKAKEIAKRANVSPTEYERLRKEAE	2.33
RDEDEKEKIKEALKRGNEDKAKEIAKRANVSPKEYERLRKEAE	2.04
RDEDEKEKIKEALVRGNEDKAKEIAKRANVSPEEYERLRKEAE	2.33
RDEDEKEKIKEALGRGNEDKAKEIAKRANVSPEEYERLRKEAE	1.98
RDEDEKEKIKEALFRGNEDKAKEIAKRANVSPEEYERLRKEAE	1.8
RDEDEKEKIKEALYRGNEDKAKEIAKRANVSPEEYERLRKEAE	1.97
RDEDEKEKIKEALRRGNEDKAKEIAKRANVSPEEYERLRKEAE	3.32
RDEDEKEKIKEALKRGNEDKAKEIAKRANVSPEEYEHLRKEAE	2.12
RDEDEKEKIKEALKRGNEDKAKEIAKRANVSPEEYENLRKEAE	2.35
RDEDEKEKIKEALKRGNEDKAKEIAKRANVSPEEYEFLRKEAE	2.15

Variant	folding stability dG [kcal/mol]
RDEDEKEKIKEALKRGNEDKAKEIAKRANVSPEEYEALRKEAE	2.51
RDEDEKEVIKEALKRGNEDKAKEIAKRANVSPEEYERLRKEAE	1.94
RDEDEKETIKEALKRGNEDKAKEIAKRANVSPEEYERLRKEAE	2.27
RDEDEKEHIKEALKRGNEDKAKEIAKRANVSPEEYERLRKEAE	2.42
RDEDEKENIKEALKRGNEDKAKEIAKRANVSPEEYERLRKEAE	2.55
RDEDEKEKIKEALKRGNEDKAKEIAKRANVSPEEYERLRKEHE	1.55
RDEDEKEKIKEALKRGNEDKAKEIAKRANVSPEEYERLRKEFE	2.29
RDEDEKEKIKEALKRGNEDKAKEIAKRANVSPEEYERLRKEDE	0.965
RDEDEKEKIKEALKRGNEDKAKEIYKRANVSPEEYERLRKEAE	0.541
RDEDEKEKIKEALKRGNEDKAKEISKRANVSPEEYERLRKEAE	1.74
RDEDEKEKIKEALKRGNEDKAKEIQKRANVSPEEYERLRKEAE	2.15
RDEDEKEKIKEALKRGNEDKAKEIAKRANVSPEEGERLRKEAE	-0.05
RDEDEKEKIKEALKRGNEDKAKEIAKRANVSPEEIERLRKEAE	1.39
RDEAEKEKIKEALKRGNEDKAKEIAKRANVSPEEYERLRKEAE	2.83
RDEPEKEKIKEALKRGNEDKAKEIAKRANVSPEEYERLRKEAE	2.48
RDEDEKEKIKPALKRGNEDKAKEIAKRANVSPEEYERLRKEAE	0.82
RDEDEKEKIKMALKRGNEDKAKEIAKRANVSPEEYERLRKEAE	2.67
RDEDEKEKRKEALKRGNEDKAKEIAKRANVSPEEYERLRKEAE	0.406
RDEDEKEKCKEALKRGNEDKAKEIAKRANVSPEEYERLRKEAE	1.26
